Values quoted from earlier work as cited in publication PMC9783754.

Target: S100A12 (Homo sapiens) (UniProt P80511)
Sequence (P80511 2-92): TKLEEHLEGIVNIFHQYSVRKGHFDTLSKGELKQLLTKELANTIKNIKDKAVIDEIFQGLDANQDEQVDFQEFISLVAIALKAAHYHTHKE

Chain of S100A12 (P80511 2-92): as above

For S100A12 (from UniProt P80511), the Kd is listed as 160 µM.
